Test results as given in the supplement of paper PMC12042874.
± gives the uncertainty stated by the source.

Test: amyloid nucleation score (Sup35N fusion, yeast selection) (log enrichment); library NNK1; higher = more nucleation; inactive = no reads after selection
Summary of the method: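 Nucleation score: DiMSum log enrichment of output over input reads, centred on the mode score of non-aggregating sequences. Only sequences with at least 100 input reads were kept. Reads came from Illumina sequencing of plasmid inserts before and after 7 days of growth at 30°C without adenine and uracil, in psi-negative yeast expressing Sup35N fused to peptides of 20 random codons after 24 hours of induction with 100 μM copper sulfate.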

Substance | amyloid nucleation score
RIKVYALMHRSGGICTFIR | 0.04 ± 0.21
VCVLSGRK | -0.416 ± 0.38
SGHACTGR | 0.616 ± 0.4
CKRRIQMKLLS | -0.244 ± 0.37
SVMLLQLYMCLINFPNIPRT | 1.6 ± 0.44
YCTVVKFLHATFQFSNPLGM | 1.58 ± 0.48
SSSFRCAFSSVA | 0.994 ± 0.69
QHHLIGMVRSIGEKMLAKNQ | 0.094 ± 0.34
PGGYM | 0.597 ± 0.52
VYVIIWSIILGRTVAGWMYY | inactive
LGSEAS | 0.093 ± 0.2
PPMDIGLLPVRI | -1.69 ± 1.7
NWGENWRLGMSSIREESGAE | -0.735 ± 2.1
DKEYWSVSSVRYTTENGWI | 1.07 ± 0.47
FDPCYTHALWLFGDVKARCM | -0.083 ± 0.37
VFQLIVTTFLSCVGFHKVMW | -0.658 ± 0.6
GKQGRIQDSVYDWCCCNLSG | 0.255 ± 1.2
RMSCAHDDHPIYWSCT | -0.622 ± 0.98
FAPRSLGFYMNFFPRMMGQR | -0.88 ± 1.5
RFFSGLIVHNLLCLCRPPNP | 6.58 ± 0.078
NHLRGKCTWGRYCWSVVIRF | 0.362 ± 0.83
TPAASIRLTRLPEGLIFI | 0.47 ± 0.95
MAGLL | -0.546 ± 1.1
IAYDRRFIDLTRFIAIKFYI | -0.021 ± 0.93
VVRWSFDNAYSSSLDNLIVI | -0.209 ± 0.34

Substance | amyloid nucleation score
CHEQHSASREYVDREYGKYS | inactive
NNNAMQVDVILMRFWVKVAV | 0.492 ± 0.89
TRMCLRAKSMWVVDSN | 0.068 ± 0.48
GLGRSLKGHIMTAMRCMQGV | -0.691 ± 0.44
VYIVCYFLHTGSFGWTCCVE | inactive
YAISGAGYMLF | 0.027 ± 1.7
NWINNRG | 1.03 ± 0.32
YAERLIRKWS | 0.06 ± 0.28
ILHDNFKSSELFAWSAYCRY | inactive
PVHNRVINRILGSSLEVLEN | -0.123 ± 0.31
SVLWCPRCRYCKFAGVRTWK | -0.398 ± 0.97
VLNFEGMSRAVFLRLISIQQ | -0.837 ± 0.9
IFPCNFSGNYLRKVWFPVRY | 0.42 ± 0.91
MKFDYFRRC | -0.471 ± 0.5
QRFWYTGFGSVPIQDIEVGI | 0.328 ± 0.32
EVYCIDVGDLSVSGKFDRSL | 1.54 ± 0.4
NVSEVCKYYPLFRSD | -0.007 ± 0.23
TVFRTSFLWHGMGRGLVR | 1.03 ± 0.59
LYRSGSVMSSATHYRGAHLC | -0.556 ± 0.77
EDCIWYVVGH | -2.18 ± 2.4
RMGNQYPRSVKWT | -0.029 ± 0.33
TWSSKIEDSSAYYDG | 1.65 ± 0.36
LKSWVLYYFM | 1.03 ± 0.35
NCGSVFFYGPIVGFHRLGLV | 0.967 ± 0.44
RLVGGPRRASITKNWYTEK | -0.649 ± 0.73

Substance | amyloid nucleation score
YLFFNLYCNYVLTAMLRACS | inactive
GDNMDEEARWRLPVRFDRAS | -0.013 ± 1.2
HSATGQIGRALLTSSCVCL | inactive
VRVQTRHLGDGLPHGQDKCY | -0.403 ± 0.52
LYEFRGGTHVGSDFSDVVFV | 1.05 ± 0.47
GNSHMFIIAYSTYMLYTQTL | 0.845 ± 0.55
MYQVHTVSTVKIEMAYHAQG | 1.67 ± 0.26
LCGGWLMGAGRFDGR | 0.862 ± 0.54
RDVTCRLYLMLWS | -0.641 ± 1.5
RLVRCMGTVIINQSHSCDRG | 0.607 ± 0.64
DCNPSWIPFLVCHRIYACWR | 1.41 ± 0.64
RGMSTNSRECHNMCFQVGV | 0.228 ± 0.49
SSRNDLDVQYLTVDQRPSMP | 1.66 ± 0.56
HPPNFVNVSW | -0.023 ± 0.51
NVSGNEMISGAFGIDEIDGS | 0.189 ± 0.9
RLFNTAQGSHSWH | 1.56 ± 0.71
WDYSRLLFAYNKIVTERNNG | -0.356 ± 0.29
SVHKSMKSDINMACHAKR | 1.04 ± 0.6
VGLMAVLRVGRKGLPLKNME | -0.082 ± 0.31
VDSHVYRNT | -0.203 ± 1.1
YILWNHNGLNGWGFAGITLF | -0.994 ± 0.51
AIVNMVLIHKERTVSVLIRA | -0.296 ± 0.58
WYRQSAFNVLTDSLIILLVC | 4.99 ± 0.07
LFLNMNPVLDTIIPFGWSSV | -0.128 ± 0.56
FTDSTRFGSYLLSSAMFPTM | -1.65 ± 2.7

Substance | amyloid nucleation score
TTKSLSVSLGGHYYVTRVRR | 0.81 ± 0.83
PTIFFDYAHYQTGRVLMAL | 0.408 ± 0.35
EYFLSQYRKFTGYFVVITAT | 1.47 ± 0.76
RHSKMVQLRLSTYGVET | inactive
YRHSDANKHLGGAIQF | -0.519 ± 0.53
IVLDT | 0.227 ± 0.29
FASARQLMQTTDKHSVWYVV | -1.87 ± 1.8
EKMHQSYLSRYYIDR | 1.12 ± 0.54
GSCVWFSGNRVPTFWWSGDS | -0.046 ± 0.31
TIFNLLPMGC | 0.975 ± 0.58
GRTVPDYLMVRSATNIRYGF | -1.19 ± 1.7
IYMCIGWQ | 7.268 ± 0.044
SVVRTMSLLATFLRV | -0.795 ± 1.6
YYRGCTWLAYPEERTALPRM | 0.208 ± 0.27
QHWAGIPDLAF | 0.547 ± 0.64
LKLLINGY | -0.333 ± 0.59
VLYELSKMGYRVLLYTHPDR | 0.125 ± 0.46
RCNAKWL | -0.426 ± 0.77
SCVAVRLLWQDMHPRANEPR | 3.34 ± 0.13
IVGKQSVLYYDSVFVTWMYK | -0.509 ± 0.3
FSCVIGFPKHRNDTLVTERA | 6.65 ± 0.067
LFFVSRG | -0.465 ± 1.6
SITWNPPVPVRTNVVDRNLG | 0.48 ± 0.52
FLSICVDSVKFVFGGVWTSQ | -0.882 ± 0.53
SYLKS | -0.4 ± 0.63

Substance | amyloid nucleation score
SGGMFQVICLV | 0.263 ± 0.34
KVSENLPRMPANLLTI | 0.09 ± 0.44
LGRIDRWKDQWCSLAELKS | -0.383 ± 1.7
FEDIRYDRKVWGICALSNCA | 0.814 ± 0.47
WHSISYF | inactive
TSYIQW | -0.359 ± 0.29
IYIIPFDRNLYPISIHVLVR | inactive
LVSVCLGCEVCIFVVYIPNP | inactive
NSLCRLSGCCGVLRDLPLVM | -0.232 ± 0.33
HAKNSRIYSWLFLCSIKWG | 0.396 ± 0.3
PGMKISSFCYTTMNHYNKSF | -0.375 ± 1.2
SDSIVNKKIVRWYRVFRIGC | 1.19 ± 0.51
SMESLTVEAMNSVEAFPVTY | -1.22 ± 0.73
LNTFTVLMLWMLLQNVAFIL | -1.37 ± 2.1
IGPGLSSR | -0.521 ± 0.63
GVLLLIQSGNCRWRRSSRAP | 0.344 ± 0.65
LAHVFWRIDWMDKWGYNGDA | 0.992 ± 0.26
KTCSQSEKM | -0.562 ± 0.3
GHLNQCGLNL | -0.136 ± 0.38
NTSSLVMVSCDTPRYTNTEV | -1.04 ± 0.72
LAGGVHLRPHERKEFLD | inactive
GYLLCAG | 0.549 ± 0.71
QGLLPDIYVALSLCGVPGTD | -0.262 ± 0.59
CARYNASDRGEASYLIEHCG | -0.224 ± 0.57
LLVLMYNCFAIYKNWIF | 0.209 ± 1.2

Substance | amyloid nucleation score
FKNCFDSNTAGICLNHLWKR | 1.25 ± 0.63
KFFLRNGVAGTTVLLVQGLQ | inactive
MLEDNLRVTTWPY | -0.407 ± 0.39
FQVCLVLSAHVRPQRYFKSW | -0.429 ± 0.8
VLTWFDCYLICLYTRTSLRI | 0.365 ± 0.41
HSLAGLGIIGRCAKLVQAQS | 0.48 ± 0.25
MNNKDDAVYVEHL | 0.072 ± 0.23
SGWYDP | -0.523 ± 0.7
ISVLVHMMRKAFVQG | 0.768 ± 0.39
KNRRSCIMNIGRYWRVQMVI | -0.846 ± 0.68
WRLSLYPQPLGLWAEATLDT | -0.209 ± 0.53
YMAFYPCWVHHKMIEKLCRC | -0.076 ± 0.71
YYWVFCFFA | 7.47 ± 0.079
LGYAYSEPPWRLMVNWSPSA | 1.66 ± 0.16
WSFLANFNWMN | 0.157 ± 1.4
SGCWT | 0.331 ± 0.8
VGESHCLNADLVSYQHN | -0.374 ± 0.6
HNHADATQKKCGVQ | -0.112 ± 0.28
MEICNCKDYFKAYRRFSHGS | 1.56 ± 0.27
YIIYGWVEIF | -1.14 ± 2.1
TVLKVSTEYFFLMKESGVVC | 0.593 ± 0.26
WPRNFYFMFRCLGMAAREMC | 0.285 ± 0.63
LMLTGRD | -0.462 ± 1.2
LYGYCFMLVSRESFLVRSGW | -0.272 ± 0.52
GTFSGQKLCYVCVSLSGFG | 0.005 ± 0.5

Substance | amyloid nucleation score
MGRRRAPRGGFILRYGCPCR | -0.039 ± 0.73
LSWSILDGFGGMRCCNINAL | 7.155 ± 0.058
GLILNNLSWAHWPPGGSMWL | 2.72 ± 0.17
AYAILMRKMVIHADLLARC | -0.006 ± 0.7
KFDPVKQYLCMYFFTYQIES | 2.06 ± 0.15
TYDLPTYIILVSPQYLCANT | -0.06 ± 0.27
NWICKRVIYEYFSTQIYSSG | -0.133 ± 0.55
LFRYTVRQGWFKRETHWVPM | 0.296 ± 0.53
SVSLTNGVAEADKRYASAWL | -0.093 ± 0.31
SYNDQSVAYCVLIAETVWYC | 7.742 ± 0.055
TEAFRSRAFFGWWRSMCRRW | 0.112 ± 0.87
MRWIVWYVIS | -0.859 ± 1.4
VLAVLVFSGCGGVRGTSNLT | 1.54 ± 0.14
NNPLLIPAYPTRNQKVKLIK | 0.108 ± 0.39
YSNRWNYWVYVFGQVF | -0.437 ± 0.42
RSQSCLVYYWTRFRPVYRFA | 0.671 ± 0.29
VMMYLFYFHTRMCMSHLCYA | -0.891 ± 1.6
LNTAQI | 0.512 ± 0.29
LPEEDG | inactive
ITRSWLT | -0.12 ± 0.3
KMYLLRIQ | 0.661 ± 0.82
YMPPNGKCSKVCLLRGGDYM | 0.719 ± 0.37
